Patent publication US11479601B2, “Antibodies specific to Sonic Hedgehog and method of use thereof” (The Regents of the University of California, priority 2016, dated 2022)

Legend:
[1] = target: T1, full-length Shh polypeptide (Homo sapiens, UniProt Q15465); assay: Flow cytometry: binding of C-terminal Shh antibodies to full-length Shh expressed in transfected cells; details: antibody at 1:10 (Commercial at 1:50)
T1 construct: Expression of full-length Shh polypeptide in transfected cells; expressed in transfected cells; pCMV-Shh plasmid (Origene)
Procedure: FACS (1:40). The secondary antibody was a donkey anti-mouse FITC-linked antibody (ab97029, 1:100, Abcam). For cell analysis after treatment assays (chemotherapy or GDC0449), a dead cell marker (SytoxRed, Invitrogen) was also used. For human fresh samples, an anti-CD45 APC-linked antibody (ab28106, 1:100, Abcam), and a dead cells marker (SytoxRed, Invitrogen) were added. For staining of stable transfected cell lines, mouse anti-HA antibody (Abcam, 1:100) and rabbit anti-FLAG antibody (Cell Signaling; 1:400) were used. Corresponding secondary antibodies were donkey anti-mouse AlexaFluor647 (Invitrogen, 1:1000) and donkey anti-rabbit AlexFluor594 (Invitrogen, 1:1000) antibodies. Flow cytometry analyses were performed on AccuriC6 flow cytometer (BD Biosciences), and FACS on FACSAria II (BD Biosciences). Flow analyses were based at least on 200,000 cells, and each test was made at least in triplicate. For all experiments, a negative control with cells processed without primary antibody was used. […]
Expression of full-length Shh polypeptide in transfected cells increased the percentage of cells labeled with the Shh antibodies produced by two of the subclones (2D9 and 2G4) identified after the screening, compared to the percentage of untransfected cells labeled by the same antibodies, as measured by flow cytometry (Table 3).

[2] = system: A549 cells; assay: Viability of A549 cells treated with Shh antibodies ± GLI inhibitor 249C; type: cell-based, human; details: for Cell viability of A549 cells: 249C at 40 nM where added
Procedure: The effect of the C-terminal Shh antibodies from clones 2G4 and 2D9 on the viability of A549 cells was determined. A549 cells were exposed to increasing concentrations of the C-terminal Shh antibodies (2G4, 2D9), or antibodies against the N-terminal portion of Shh protein (6D3, 2E1), and the effective dose (ED50) was determined (assay 1: FIG. 16A; assay 2: FIG. 16B). […] Possibly due to the fact that very few cells express full-length Shh on the cell surface, the cytotoxic effect of the C-terminal Shh antibodies was not as potent as the cytotoxic effect of the N-terminal antibodies.
Next, the cytotoxicity of the C-terminal Shh antibodies was tested when the antibodies were used in conjunction with a small-molecule inhibitor of GLI zinc-finger transcription factor signaling, 249C (4-(5-chlorofuran-2-yl)-1,3-bis(2,4-difluorophenyl)-5-methyl-N-((4-methylmorpholin-2-yl)methyl)-4,5-dihydro-1H-pyrazole-5-carboxamide; Compound 135 above). A549 cells were exposed to varying concentrations of the C-terminal antibodies (2G4, 2D9) or the N-terminal antibodies (6D3, 2E1), in the presence or absence of a very low dose (40 nM) of 249C. (The IC50 of 249C in A549 cells is ˜70 nM.)

[3] = system: A549-derived NSCLC xenografts; assay: Antitumor efficacy in NSCLC A549 xenograft model (8 mg/kg); type: in vivo, mice; details: 3 times a week for 3 weeks, versus control IgG
Procedure: 7-week old female nude mice (Jackson Laboratories) were injected with 10×10^6 NSCLC A549 cells in 50% matrigel in the flank region. […] 8 mg/kg therapeutic or control antibodies were administered three times a week for approximately 3 weeks. Tumor volumes were calculated using the formula (V=L×W^2) with recorded caliper measurements. At the end point, tumors were harvested, weighed and imaged. All animal procedures were performed under IACUC-approved protocols and guidelines.

[4] = system: Shh; assay: Western blot binding to purified and cell-expressed Shh; parameters: species or system human; details: purified Shh and Shh expressed endogenously and/or exogenously in cells
Source text: FIGS. 15A and 15B. Antibodies bind target SHh via Western blot. (FIG. 15A) Purified, recombinant human Shh (19.7 kDa, >98% purity by SDS-PAGE) was probed by the indicated antibodies. (FIG. 15B) Cell lysates from HEK-293T cells (PHX—Phoenix cells), with or without exogenous expression of full-length Shh, and A549 cells were probed with the antibodies produced by clones 2G4 and 2D9. Full-length Shh: ˜50 kDa; N-terminal Shh: ˜19 kDa; C-terminal Shh: ˜25 kDa. Sample 2 was lysate from PHX cells transfected with full-length Shh DNA for about 24 hours. The exogenously expressed Shh appears to be cleaved into N-terminal and C-terminal Shh peptides. Both PHX cells and A549 cells endogenously express Shh.

B1: 2G4: purified mouse monoclonal C-terminal Shh antibody from hybridoma sub-clone 2G4 of clone 1C11, IgG1 kappa (antibody, V domains shown)
VH: EVKLVESGGGLVKPGGSLKLSCAASGFTFSSYTMSWVRQTPAKRLEWVATISSGGGNTYYPDSVKGRFTISRDNARNTLYLQMSSLRSEDTAMYYCARDYRSLFAYWGQGTLVTVSA
VL: QIVLTQSPAIMSASPGEKVTITCSASSSVSYMHWFQQKPGTSPKLWIYSTSNLASGVPARFSGSGSGTSYSLTISRMEAEDAATYYCQQRSSYPFTFGSGTKLEIK
For B1, the “percentage of cells labeled with the Shh antibody (flow cytometry)” value ([1]; +SHh Full-Length transfection) was 2.24%, the “percentage of cells labeled with the Shh antibody (flow cytometry)” value ([1]; No transfection) was 0.17% and the “Cell viability of A549 cells” value ([2]; Ab conc. 32 ng/mL) was 99%. For the same molecule, the “Cell viability of A549 cells” value ([2]; Ab conc. 64 ng/mL) was 95%, the “Cell viability of A549 cells” value ([2]; Ab conc. 128 ng/mL) was 91% and the “synergy with a GLI inhibitor in reducing viability of non-small cell lung cancer cells” value ([2]; with 249C at 40 nM) was “act synergistically”. The tumor volume [3] was “significant reduction in tumor volume”, the “tumor weight of harvested tumors” value [3] was “decrease in tumor weight” and the “binding to Shh by Western blot” value [4] was “bound to purified Shh”.
